{"source": "patent US20250206837A1", "about": "(ELIXIRON IMMUNOTHERAPEUTICS HONG KONG, published 2025)"}
{"target": "T1, Recombinant His-tagged human CD36.ECD protein (Sino Biological) (human, UniProt P16671 30-439)", "T1 construct": "Bought protein; also called hCD36.ECD; hCD36; not shown: His tag", "T1 sequence (P16671 30-439 limits assumed)": "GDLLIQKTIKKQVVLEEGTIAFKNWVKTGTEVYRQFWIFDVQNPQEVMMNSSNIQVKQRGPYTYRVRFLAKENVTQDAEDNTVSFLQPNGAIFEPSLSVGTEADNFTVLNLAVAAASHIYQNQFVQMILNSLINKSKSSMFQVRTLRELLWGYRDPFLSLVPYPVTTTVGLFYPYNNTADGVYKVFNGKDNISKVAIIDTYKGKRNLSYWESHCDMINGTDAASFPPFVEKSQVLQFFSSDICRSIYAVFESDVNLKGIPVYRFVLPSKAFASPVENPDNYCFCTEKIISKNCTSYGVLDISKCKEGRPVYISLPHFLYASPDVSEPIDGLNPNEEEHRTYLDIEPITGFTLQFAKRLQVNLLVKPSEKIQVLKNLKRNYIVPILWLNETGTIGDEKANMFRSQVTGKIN", "test": "ELISA, coated human CD36.ECD (FIG. 2D)", "procedure": "(§1) ELISA materials and methods: Recombinant His-tagged human CD36.ECD protein or His-tagged mouse CD36.ECD protein (both from Sino Biological) was immobilized on 96 well microtiter plate at a concentration of 1 μg/mL in Coating Solution (SeraCare) overnight at 4° C. The wells were washed with wash solution (0.05% Tween20 in PBS) and blocked with 1% BSA in PBS. Serial dilutions of anti-CD36 antibodies were added to wells. After incubation at 37° C. for 1 h, the wells were washed with wash solution. Peroxidase-conjugated Goat anti-human kappa Light chain antibody (Sigma) was applied to each well at 37° C. for 1 h incubation. After washing, the wells were developed with TMB substrate for 5-10 min at room temperature and then stopped with 1 N HCl. Thereafter absorbance was measured at 450 nm and 650 nm. EC50 values were calculated through GraphPad Prism7.\n(§2) The competitor anti-CD36 antibody ONA, which is derived from clone “ONA-0-v1” as disclosed in WO2021176424A1 in hIgG4-S228P-FALA format.", "units": {"EC50": "nM"}}
{"binder": "117_101K (antibody, V domains shown, full-length IgG, human kappa) VH: EVQLVESGGGLVQPGGSLRLSCAASGFTISSFGIHWVRQAPGKGLEWVAWIAPYGGYTYYADSVKGRFTISADTSKNTAYLQMNSLRAEDTAVYYCARSFKGYFDYWGQGTLVTVSS VL: DIQMTQSPSSLSASVGDRVTITCRASQDVSNWVAWYQQKPGKAPKLLISYATSLYSGVPSRFSGSGSGTDFTLTISSLQPEDFATYYCQQHSNAPLTFGQGTKVEIKR", "EC50": 1.46}
{"binder": "117_101A (antibody, V domains shown, full-length IgG, human kappa) VH: EVQLVESGGGLVQPGGSLRLSCAASGFTISSFGIHWVRQAPGKGLEWVAWIAPYGGYTYYADSVKGRFTISADTSKNTAYLQMNSLRAEDTAVYYCARSFAGYFDYWGQGTLVTVSS VL: DIQMTQSPSSLSASVGDRVTITCRASQDVSNWVAWYQQKPGKAPKLLISYATSLYSGVPSRFSGSGSGTDFTLTISSLQPEDFATYYCQQHSNAPLTFGQGTKVEIKR", "EC50": 0.0751}
{"target": "T1, Recombinant His-tagged human CD36.ECD …", "test": "ELISA, coated human CD36.ECD (FIG. 2A)", "procedure": "as §1, §2", "units": {"EC50": "nM"}}
{"binder": "117_58E (antibody, V domains shown, full-length IgG, human kappa) VH: EVQLVESGGGLVQPGGSLRLSCAASGFTISSFGIHWVRQAPGKGLEWVAWIAPYGGYEYYADSVKGRFTISADTSKNTAYLQMNSLRAEDTAVYYCARSFFGYFDYWGQGTLVTVSS VL: DIQMTQSPSSLSASVGDRVTITCRASQDVSNWVAWYQQKPGKAPKLLISYATSLYSGVPSRFSGSGSGTDFTLTISSLQPEDFATYYCQQHSNAPLTFGQGTKVEIKR", "EC50": 0.422}
{"binder": "117_57R (antibody, V domains shown, full-length IgG, human kappa) VH: EVQLVESGGGLVQPGGSLRLSCAASGFTISSFGIHWVRQAPGKGLEWVAWIAPYGGRTYYADSVKGRFTISADTSKNTAYLQMNSLRAEDTAVYYCARSFFGYFDYWGQGTLVTVSS VL: DIQMTQSPSSLSASVGDRVTITCRASQDVSNWVAWYQQKPGKAPKLLISYATSLYSGVPSRFSGSGSGTDFTLTISSLQPEDFATYYCQQHSNAPLTFGQGTKVEIKR", "EC50": 0.0695}
{"binder": "117_57A (antibody, V domains shown, full-length IgG, human kappa) VH: EVQLVESGGGLVQPGGSLRLSCAASGFTISSFGIHWVRQAPGKGLEWVAWIAPYGGATYYADSVKGRFTISADTSKNTAYLQMNSLRAEDTAVYYCARSFFGYFDYWGQGTLVTVSS VL: DIQMTQSPSSLSASVGDRVTITCRASQDVSNWVAWYQQKPGKAPKLLISYATSLYSGVPSRFSGSGSGTDFTLTISSLQPEDFATYYCQQHSNAPLTFGQGTKVEIKR", "EC50": 1.52}
{"target": "T1, Recombinant His-tagged human CD36.ECD …", "test": "ELISA, coated human CD36.ECD (FIG. 2C)", "procedure": "as §1, §2", "units": {"EC50": "nM"}}
{"binder": "117_30DT (antibody, V domains shown, full-length IgG, human kappa) VH: EVQLVESGGGLVQPGGSLRLSCAASGFTIDTFGIHWVRQAPGKGLEWVAWIAPYGGYTYYADSVKGRFTISADTSKNTAYLQMNSLRAEDTAVYYCARSFFGYFDYWGQGTLVTVSS VL: DIQMTQSPSSLSASVGDRVTITCRASQDVSNWVAWYQQKPGKAPKLLISYATSLYSGVPSRFSGSGSGTDFTLTISSLQPEDFATYYCQQHSNAPLTFGQGTKVEIKR", "EC50": 0.103}
{"binder": "117_30AA (antibody, V domains shown, full-length IgG, human kappa) VH: EVQLVESGGGLVQPGGSLRLSCAASGFTIAAFGIHWVRQAPGKGLEWVAWIAPYGGYTYYADSVKGRFTISADTSKNTAYLQMNSLRAEDTAVYYCARSFFGYFDYWGQGTLVTVSS VL: DIQMTQSPSSLSASVGDRVTITCRASQDVSNWVAWYQQKPGKAPKLLISYATSLYSGVPSRFSGSGSGTDFTLTISSLQPEDFATYYCQQHSNAPLTFGQGTKVEIKR", "EC50": 0.145}
{"binder": "117_30FT (antibody, V domains shown, full-length IgG, human kappa) VH: EVQLVESGGGLVQPGGSLRLSCAASGFTIFTFGIHWVRQAPGKGLEWVAWIAPYGGYTYYADSVKGRFTISADTSKNTAYLQMNSLRAEDTAVYYCARSFFGYFDYWGQGTLVTVSS VL: DIQMTQSPSSLSASVGDRVTITCRASQDVSNWVAWYQQKPGKAPKLLISYATSLYSGVPSRFSGSGSGTDFTLTISSLQPEDFATYYCQQHSNAPLTFGQGTKVEIKR", "EC50": 0.254}
{"binder": "117_30AT (antibody, V domains shown, full-length IgG, human kappa) VH: EVQLVESGGGLVQPGGSLRLSCAASGFTIATFGIHWVRQAPGKGLEWVAWIAPYGGYTYYADSVKGRFTISADTSKNTAYLQMNSLRAEDTAVYYCARSFFGYFDYWGQGTLVTVSS VL: DIQMTQSPSSLSASVGDRVTITCRASQDVSNWVAWYQQKPGKAPKLLISYATSLYSGVPSRFSGSGSGTDFTLTISSLQPEDFATYYCQQHSNAPLTFGQGTKVEIKR", "EC50": 0.247}
{"binder": "117_30FA (antibody, V domains shown, full-length IgG, human kappa) VH: EVQLVESGGGLVQPGGSLRLSCAASGFTIFAFGIHWVRQAPGKGLEWVAWIAPYGGYTYYADSVKGRFTISADTSKNTAYLQMNSLRAEDTAVYYCARSFFGYFDYWGQGTLVTVSS VL: DIQMTQSPSSLSASVGDRVTITCRASQDVSNWVAWYQQKPGKAPKLLISYATSLYSGVPSRFSGSGSGTDFTLTISSLQPEDFATYYCQQHSNAPLTFGQGTKVEIKR", "EC50": 0.202}
{"target": "T1, Recombinant His-tagged human CD36.ECD …", "test": "ELISA, coated human CD36.ECD (FIG. 2B)", "procedure": "as §1, §2", "units": {"EC50": "nM"}}
{"binder": "117_28A (antibody, V domains shown, full-length IgG, human kappa) VH: EVQLVESGGGLVQPGGSLRLSCAASGFAISSFGIHWVRQAPGKGLEWVAWIAPYGGYTYYADSVKGRFTISADTSKNTAYLQMNSLRAEDTAVYYCARSFFGYFDYWGQGTLVTVSS VL: DIQMTQSPSSLSASVGDRVTITCRASQDVSNWVAWYQQKPGKAPKLLISYATSLYSGVPSRFSGSGSGTDFTLTISSLQPEDFATYYCQQHSNAPLTFGQGTKVEIKR", "EC50": 0.129}
{"binder": "117_31A (antibody, V domains shown, full-length IgG, human kappa) VH: EVQLVESGGGLVQPGGSLRLSCAASGFTISAFGIHWVRQAPGKGLEWVAWIAPYGGYTYYADSVKGRFTISADTSKNTAYLQMNSLRAEDTAVYYCARSFFGYFDYWGQGTLVTVSS VL: DIQMTQSPSSLSASVGDRVTITCRASQDVSNWVAWYQQKPGKAPKLLISYATSLYSGVPSRFSGSGSGTDFTLTISSLQPEDFATYYCQQHSNAPLTFGQGTKVEIKR", "EC50": 0.0991}
{"binder": "117_28D (antibody, V domains shown, full-length IgG, human kappa) VH: EVQLVESGGGLVQPGGSLRLSCAASGFDISSFGIHWVRQAPGKGLEWVAWIAPYGGYTYYADSVKGRFTISADTSKNTAYLQMNSLRAEDTAVYYCARSFFGYFDYWGQGTLVTVSS VL: DIQMTQSPSSLSASVGDRVTITCRASQDVSNWVAWYQQKPGKAPKLLISYATSLYSGVPSRFSGSGSGTDFTLTISSLQPEDFATYYCQQHSNAPLTFGQGTKVEIKR", "EC50": 0.0735}
{"binder": "117_30D (antibody, V domains shown, full-length IgG, human kappa) VH: EVQLVESGGGLVQPGGSLRLSCAASGFTIDSFGIHWVRQAPGKGLEWVAWIAPYGGYTYYADSVKGRFTISADTSKNTAYLQMNSLRAEDTAVYYCARSFFGYFDYWGQGTLVTVSS VL: DIQMTQSPSSLSASVGDRVTITCRASQDVSNWVAWYQQKPGKAPKLLISYATSLYSGVPSRFSGSGSGTDFTLTISSLQPEDFATYYCQQHSNAPLTFGQGTKVEIKR", "EC50": 0.141}
{"binder": "117_32D (antibody, V domains shown, full-length IgG, human kappa) VH: EVQLVESGGGLVQPGGSLRLSCAASGFTISSDGIHWVRQAPGKGLEWVAWIAPYGGYTYYADSVKGRFTISADTSKNTAYLQMNSLRAEDTAVYYCARSFFGYFDYWGQGTLVTVSS VL: DIQMTQSPSSLSASVGDRVTITCRASQDVSNWVAWYQQKPGKAPKLLISYATSLYSGVPSRFSGSGSGTDFTLTISSLQPEDFATYYCQQHSNAPLTFGQGTKVEIKR", "EC50": 0.0276}
{"binder": "117_31D (antibody, V domains shown, full-length IgG, human kappa) VH: EVQLVESGGGLVQPGGSLRLSCAASGFTISDFGIHWVRQAPGKGLEWVAWIAPYGGYTYYADSVKGRFTISADTSKNTAYLQMNSLRAEDTAVYYCARSFFGYFDYWGQGTLVTVSS VL: DIQMTQSPSSLSASVGDRVTITCRASQDVSNWVAWYQQKPGKAPKLLISYATSLYSGVPSRFSGSGSGTDFTLTISSLQPEDFATYYCQQHSNAPLTFGQGTKVEIKR", "EC50": 0.0375}
{"binder": "117_30A (antibody, V domains shown, full-length IgG, human kappa) VH: EVQLVESGGGLVQPGGSLRLSCAASGFTIASFGIHWVRQAPGKGLEWVAWIAPYGGYTYYADSVKGRFTISADTSKNTAYLQMNSLRAEDTAVYYCARSFFGYFDYWGQGTLVTVSS VL: DIQMTQSPSSLSASVGDRVTITCRASQDVSNWVAWYQQKPGKAPKLLISYATSLYSGVPSRFSGSGSGTDFTLTISSLQPEDFATYYCQQHSNAPLTFGQGTKVEIKR", "EC50": 0.0964}
